Consider two substances from PMC5081248.

Assay [1] concerns the target Andes virus (ANDV) glycoprotein C, wild type, from virus-like particles (Andes virus strain Chi-7913). Put plainly: sucrose gradient sedimentation.
Assay [2] has as its target Puumala virus (PUUV) glycoprotein C ectodomain, soluble GC (residues 659-1106 of GPC) (Puumala virus P360 strain). As to the kind of experiment: crystal structure.

For the substance “Andes virus (ANDV) glycoprotein C, wild type, from virus-like particles (natural protein)”, the stoichiometry N in assay [1] was determined as 3.
Take “Puumala virus (PUUV) glycoprotein C ectodomain, soluble GC (residues 659-1106 of GPC) (domain or fragment)”: in assay [2], the stoichiometry N amounted to 3.
